# From US20080182978A1, “ANTI-NGF ANTIBODIES AND METHODS USING SAME” (RINAT NEUROSCIENCE CORP, priority 2002, published 2008)
# Where a chain is given by its changes, count along the chain named. Names and notes keep the numbering of the source.
# B1: 8L2-6D5: CDR-grafted antibody with V71K heavy chain framework substitution; template for affinity maturation (antibody, V domains shown)
# VH: QVQLQESGPGLVKPSETLSLTCTVSGFSLIGYDINWIRQPPGKGLEWIGMIWGDGTTDYNSALKSRVTISKDTSKNQFSLKLSSVTAADTAVYYCARGGYYYGTSYYFDYWGQGTLVTVS
# VL: DIQMTQSPSSLSASVGDRVTITCRASQDISNHLNWYQQKPGKAPKLLIYYISRFHSGVPSRFSGSGSGTDFTFTISSLQPEDIATYYCQQSKTLPYTFGQGTKLEIKRT
# B2: H109: heavy chain library clone, CDRH1 SEQ ID NO:28, CDRH2 SEQ ID NO:29 (antibody, V domains shown)
# VH: B1 VH with I34S, M50I
# VL: B1 VL
# B3: H19: heavy chain library clone, CDRH1 SEQ ID NO:30, CDRH2 SEQ ID NO:31 (antibody, V domains shown)
# VH: B1 VH with I34L, M50I, L63V
# VL: B1 VL
# B4: H222: heavy chain library clone, CDRH1 SEQ ID NO:32, CDRH2 SEQ ID NO:33 (antibody, V domains shown)
# VH: B1 VH with I34V, N35T, M50G, L63V
# VL: B1 VL
# B5: H225: heavy chain library clone, CDRH1 SEQ ID NO:34, CDRH2 SEQ ID NO:35 (antibody, V domains shown)
# VH: B1 VH with I34V, N35T, M50G, A62S, L63V
# VL: B1 VL
# B6: H18: heavy chain library clone, CDRH1 SEQ ID NO:36, CDRH2 SEQ ID NO:37 (antibody, V domains shown)
# VH: B1 VH with I34A, N35T, M50G, L63V
# VL: B1 VL
# B7: H227: heavy chain library clone, CDRH1 SEQ ID NO:40, CDRH2 SEQ ID NO:41 (antibody, V domains shown)
# VH: B1 VH with N35S, M50Q, A62S, L63V
# VL: B1 VL
# B8: H17: heavy chain library clone, CDRH1 SEQ ID NO:42, CDRH2 SEQ ID NO:43 (antibody, V domains shown)
# VH: B1 VH with I34A, N35S, M50G, A62S, L63V
# VL: B1 VL
# B9: H28: heavy chain library clone, CDRH1 SEQ ID NO:44, CDRH2 SEQ ID NO:45 (antibody, V domains shown)
# VH: B1 VH with I34S, N35T, M50S
# VL: B1 VL
# B10: L129: light chain library clone, CDRL1 SEQ ID NO:18, CDRL2 SEQ ID NO:19 (antibody, V domains shown)
# VH: B1 VH
# VL: B1 VL with D28S, H32N, I51T
# B11: L208: light chain library clone, CDRL1 SEQ ID NO:20, CDRL2 SEQ ID NO:21 (antibody, V domains shown)
# VH: B1 VH
# VL: B1 VL with D28Y, I51T
# B12: L97: light chain library clone, CDRL1 SEQ ID NO:22, CDRL2 SEQ ID NO:23 (antibody, V domains shown)
# VH: B1 VH
# VL: B1 VL with D28S, H32Q, I51V
# B13: L81: light chain library clone, CDRL1 SEQ ID NO:24, CDRL2 SEQ ID NO:25 (antibody, V domains shown)
# VH: B1 VH
# VL: B1 VL with S26F, D28A, H32Q, S56T
# B14: Y101W: 8L2-6D5 template with CDR H3 mutation Y101W (SEQ ID NO:46) (antibody, V domains shown)
# VH: B1 VH with Y101W
# VL: B1 VL
# B15: S105A: 8L2-6D5 template with CDR H3 mutation S105A (SEQ ID NO:47) (antibody, V domains shown)
# VH: B1 VH with S105A
# VL: B1 VL
# B16: S105T: 8L2-6D5 template with CDR H3 mutation S105T (SEQ ID NO:48) (antibody, V domains shown)
# VH: B1 VH with S105T
# VL: B1 VL
# B17: G103A: 8L2-6D5 template with CDR H3 mutation G103A (SEQ ID NO:49) (antibody, V domains shown)
# VH: B1 VH with G103A
# VL: B1 VL
# B18: S91E: 8L2-6D5 template with CDR L3 mutation S91E (SEQ ID NO:50) (antibody, V domains shown)
# VH: B1 VH
# VL: B1 VL with S91E
# B19: Y100L: 8L2-6D5 template with CDR H3 mutation Y100L (antibody, V domains shown)
# VH: B1 VH with Y100L
# VL: B1 VL
# B20: Y100R: 8L2-6D5 template with CDR H3 mutation Y100R (antibody, V domains shown)
# VH: B1 VH with Y100R
# VL: B1 VL
# B21: T104S: 8L2-6D5 template with CDR H3 mutation T104S (antibody, V domains shown)
# VH: B1 VH with T104S
# VL: B1 VL
# Molecular target: human NGF (Homo sapiens, UniProt P01138)
# Sequence (P01138 122-241): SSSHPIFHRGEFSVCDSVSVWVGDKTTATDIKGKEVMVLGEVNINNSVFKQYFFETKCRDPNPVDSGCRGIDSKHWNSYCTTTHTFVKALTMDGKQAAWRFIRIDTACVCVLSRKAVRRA
# Test: BIAcore screening assay of Fab library clones (koff)
# Type: binding
# Settings: Table 3: heavy chain library clones paired with 6D5 light chain
# Procedure: Small scale expression in 96 wells plates was optimized for screening Fab libraries. Starting from E. coli transformed with a Fab library, colonies were picked to inoculate both a master plate (agar LB+Ampicillin (50 μg/ml)+2% Glucose) and a working plate (2 ml/well, 96 well/plate containing 1.5 mL of LB+Ampicillin (50 μg/ml)+2% Glucose). Both plates were grown at 30° C. for 8-12 hours. The master plate was stored at 4° C. and the cells from the working plate were pelleted at 5000 rpm and resuspended with 1 mL of LB+Ampicillin (50 μg/ml)+1 mM IPTG to induce expression of Fabs. Cells were harvested by centrifugation after 5 h expression time at 30° C., then resuspended in 500 μL of buffer HBS-EP ([…] buffer pH 7.4, 150 mM NaCl, 0.005% P20, 3 mM EDTA). Lysis of HBS-EP resuspended cells was attained by one cycle of freezing (−80° C.) then thawing at 37° C. Cell lysates were centrifuged at 5000 rpm for 30 min to separate cell debris from supernatants containing Fabs. The supernatants were then injected into the BIAcore plasmon resonance apparatus to obtain affinity information for each Fab. Clones expressing Fabs were rescued from the master plate to sequence the DNA and for large scale Fab production and detailed characterization as described below.
# Affinities of anti-NGF Fabs and monoclonal antibodies were determined using the BIAcore300™ surface plasmon resonance (SPR) system (BIAcore, INC, Piscaway N.J.). CM5 chips were activated with N-ethyl-N′-(3-dimethylaminopropyl)-carbodimide hydrochloride (EDC) and N-hydroxysuccinimide (NHS) according to the supplier's instructions. Human NGF was diluted into 10 mM sodium acetate pH 4.0 and injected over the activated chip at a concentration of 0.005 mg/mL. Using variable flow time across the individual chip channels, two ranges of antigen density were achieved: 100-200 response units (RU) for detailed kinetic studies and 500-600 RU for screening assays. The chip was blocked with ethanolamine. […] HBS-EP buffer (0.01M HEPES, pH 7.4, 0.15 NaCl, 3 mM EDTA, 0.005% Surfactant […]) was used as running buffer for all the BIAcore assays.
# A screening BIAcore assay was optimized to determine the affinity of Fab clones from libraries. Supernatants of small culture lysates were injected at 50 μl/min for 2 min. Dissociation times of 10 to 15 minutes were used for determination of a single exponential dissociation rate (koff) using BIAevaluation software. […] Clones showing improved (slower) koff values were expressed at large scale and full kinetic parameters, kon and koff, were determined on purified protein. The assay was capable of detecting differences in affinity that were approximately 2-fold or larger.
# For affinity screening experiments, each library was further paired with the corresponding CDR-grafted light or heavy chain (for example, the H1/H2 library was paired with CDR-grafted light chain), the antibody was expressed, and affinity to human NGF of the individual clones was screened using the BIACORE surface plasmon resonance (SPR) system (BIAcore, Inc. Piscataway, N.J.) according to the manufacturer's instructions and as described above. koff, kon and KD were determined. Antibody clones were ranked based on koff rates, since generally most variation in affinity is seen in koff rates, and further because koff rates are independent of antibody concentration.
# 20-80 clones from each small library were screened using BIAcore analysis as described herein. Samples were simultaneously analyzed by BIAcore for binding affinity to NGF in one channel of the BIAcore chip and for presence of Fab by binding to a penta-histag antibody in another channel of the sensor chip, to detect the his tag at the C terminus of the heavy chain. Clones that expressed protein were classified as having the same affinity, worse affinity, better affinity or no binding, using koff to classify: The results of this analysis are shown in Table 5.
row,Molecule,koff [s⁻¹]
1,B1,0.001
2,B2,0.00016
3,B3,0.00024
4,B4,0.00038
5,B5,0.00038
6,B6,0.00042
7,B7,0.00054
8,B8,0.00061
9,B9,0.00075

# Same assay, conditions: Table 3: heavy chain library clones; KD calculated using kon 4e4 M^−1s^−1
row,Molecule,Kd [nM]
1,B8,15.2

# Same assay, conditions: Table 3: light chain library clones paired with 8L2 heavy chain
row,Molecule,koff
1,B1,**1e3 s-1
2,B10,0.00045 s⁻¹
3,B11,0.00046 s⁻¹
4,B12,0.00056 s⁻¹
5,B13,0.00074 s⁻¹

# Same assay, conditions: Table 6: single CDR H3 or L3 mutation in 8L2-6D5 template
row,Molecule,koff [s⁻¹]
1,B1,0.001
2,B14,0.00056
3,B15,0.00051
4,B16,0.00064
5,B17,0.00016
6,B18,0.00025
7,B19,0.0012
8,B20,0.0011
9,B21,0.0022

# Same assay, conditions: Table 8: CDR L3 H3 combination mutations, 8L2-6D5 template
row,Molecule,koff [s⁻¹]
1,B1,0.001

# Same assay, conditions: single CDR3 mutation
row,Molecule,binding affinity compared with the 8L2-6D5 template
1,B14,significantly increased binding affinity
2,B15,significantly increased binding affinity
3,B16,significantly increased binding affinity
4,B17,significantly increased binding affinity
5,B18,significantly increased binding affinity

# Same assay, conditions: template used to create the library
row,Molecule,koff
1,B1,1×10^−3 s^−
